# Laboratory results as given in US20120316071A1 (published 2012).
# Substitutions are numbered along the chain they refer to. In names and notes the source's numbering stands.
# B1: Fab VH5-51_IGHD5-18*01>3_IGHJ4*01 G100K/G104T G24T/S28R/G35V (H:KT TRV) & V3-4_IGLJ1*01 T78S (Fab, V domains shown)
# VH: EVQLVQSGAEVKKPGESLKISCKTSGYRFTSYWIVWVRQMPGKGLEWMGIIYPGDSDTRYSPSFQGQVTISADKSISTAYLQWSSLKASDTAMYYCARRKYSYTYDYFDYWGQGTLVTVSS
# VL: QTVVTQEPSFSVSPGGTVTLTCGLSSGSVSTSYYPSWYQQTPGQAPRTLIYSTNTRSSGVPDRFSGSILGNKAALTISGAQADDESDYYCVLYMGSGISYVFGTGTKVTVL
# notes: Fab; expressed in E. coli with CH1 (Plasmid A, His6 and Flag tags) and lambda CL (Plasmid E); also called H:KT TRV & T78S
# B2: Fab VH5-51_IGHD5-18*01>3_IGHJ4*01 G100K/G104T G24T/S28R/G35V (H:KT TRV) & V3-4_IGLJ1*01 G97A (Fab, V domains shown)
# VH: B1 VH
# VL: B1 VL with S78T, G97A
# notes: Fab; expressed in E. coli with CH1 (Plasmid A, His6 and Flag tags) and lambda CL (Plasmid E); also called H:KT TRV & G97A
# B3: Fab VH5-51_IGHD5-18*01>3_IGHJ4*01 G100K/G104T G24T/S28R/G35V (H:KT TRV) & V3-4_IGLJ1*01 M94A (Fab, V domains shown)
# VH: B1 VH
# VL: B1 VL with S78T, M94A
# notes: Fab; expressed in E. coli with CH1 (Plasmid A, His6 and Flag tags) and lambda CL (Plasmid E); also called H:KT TRV & M94A
# B4: Fab VH5-51_IGHD5-18*01>3_IGHJ4*01 G100K/G104T G24T/S28R/G35V (H:KT TRV) & V3-4_IGLJ1*01 V91H (Fab, V domains shown)
# VH: B1 VH
# VL: B1 VL with S78T, V91H
# notes: Fab; expressed from plasmid A (CH1, His6 and Flag tags) and plasmid E (lambda CL)
# B5: Fab VH5-51_IGHD5-18*01>3_IGHJ4*01 G100K/G104T G24T/S28R/G35V (H:KT TRV) & V3-4_IGLJ1*01 G27A (Fab, V domains shown)
# VH: B1 VH
# VL: B1 VL with G27A, S78T
# notes: Fab; expressed in E. coli with CH1 (Plasmid A, His6 and Flag tags) and lambda CL (Plasmid E); also called H:KT TRV & G27A
# B6: Fab VH5-51_IGHD5-18*01>3_IGHJ4*01 G100K/G104T G24T/S28R/G35V (H:KT TRV) & V3-4_IGLJ1*01 M94V (Fab, V domains shown)
# VH: B1 VH
# VL: B1 VL with S78T, M94V
# notes: as for B4
# B7: Fab VH5-51_IGHD5-18*01>3_IGHJ4*01 G100K/G104T G24T/S28R/G35V (H:KT TRV) & V3-4_IGLJ1*01 V91W (Fab, V domains shown)
# VH: B1 VH
# VL: B1 VL with S78T, V91W
# notes: as for B4
# B8: Fab VH5-51_IGHD5-18*01>3_IGHJ4*01 G100K/G104T G24T/S28R/G35V (H:KT TRV) & V3-4_IGLJ1*01 G23A (Fab, V domains shown)
# VH: B1 VH
# VL: B1 VL with G23A, S78T
# notes: Fab; expressed in E. coli with CH1 (Plasmid A, His6 and Flag tags) and lambda CL (Plasmid E); also called H:KT TRV & G23A
# B9: Fab VH5-51_IGHD5-18*01>3_IGHJ4*01 G100K/G104T G24T/S28R/G35V (H:KT TRV) & V3-4_IGLJ1*01 V91A (Fab, V domains shown)
# VH: B1 VH
# VL: B1 VL with S78T, V91A
# notes: as for B4
# B10: Fab VH5-51_IGHD5-18*01>3_IGHJ4*01 G100K/G104T G24T/S28R/G35V (H:KT TRV) & V3-4_IGLJ1*01 M94R (Fab, V domains shown)
# VH: B1 VH
# VL: B1 VL with S78T, M94R
# notes: as for B4
# B11: Fab VH5-51_IGHD5-18*01>3_IGHJ4*01 G100K/G104T G24T/S28R/G35V (H:KT TRV) & V3-4_IGLJ1*01 S28A (Fab, V domains shown)
# VH: B1 VH
# VL: B1 VL with S28A, S78T
# notes: Fab; expressed in E. coli with CH1 (Plasmid A, His6 and Flag tags) and lambda CL (Plasmid E); also called H:KT TRV & S28A
# B12: Fab VH5-51_IGHD5-18*01>3_IGHJ4*01 G100K/G104T G24T/S28R/G35V (H:KT TRV) & V3-4_IGLJ1*01 M94E (Fab, V domains shown)
# VH: B1 VH
# VL: B1 VL with S78T, M94E
# notes: as for B4
# B13: Fab VH5-51_IGHD5-18*01>3_IGHJ4*01 G100K/G104T G24T/S28R/G35V (H:KT TRV) & V3-4_IGLJ1*01 R56A (Fab, V domains shown)
# VH: B1 VH
# VL: B1 VL with R56A, S78T
# notes: as for B4
# B14: Fab VH5-51_IGHD5-18*01>3_IGHJ4*01 G100K/G104T G24T/S28R/G35V (H:KT TRV) & V3-4_IGLJ1*01 S26A (Fab, V domains shown)
# VH: B1 VH
# VL: B1 VL with S26A, S78T
# notes: Fab; expressed in E. coli with CH1 (Plasmid A, His6 and Flag tags) and lambda CL (Plasmid E); also called H:KT TRV & S26A
# B15: Fab VH5-51_IGHD5-18*01>3_IGHJ4*01 G100K/G104T G24T/S28R/G35V (H:KT TRV) & V3-4_IGLJ1*01 M94L (Fab, V domains shown)
# VH: B1 VH
# VL: B1 VL with S78T, M94L
# notes: as for B4
# B16: Fab VH5-51_IGHD5-18*01>3_IGHJ4*01 G100K/G104T G24T/S28R/G35V (H:KT TRV) & V3-4_IGLJ1*01 V91T (Fab, V domains shown)
# VH: B1 VH
# VL: B1 VL with S78T, V91T
# notes: as for B4
# B17: Fab VH5-51_IGHD5-18*01>3_IGHJ4*01 G100K/G104T G24T/S28R/G35V (H:KT TRV) & V3-4_IGLJ1*01 V91N (Fab, V domains shown)
# VH: B1 VH
# VL: B1 VL with S78T, V91N
# notes: as for B4
# B18: Fab VH5-51_IGHD5-18*01>3_IGHJ4*01 G100K/G104T G24T/S28R/G35V (H:KT TRV) & V3-4_IGLJ1*01 M94F (Fab, V domains shown)
# VH: B1 VH
# VL: B1 VL with S78T, M94F
# notes: as for B4
# B19: Fab VH5-51_IGHD5-18*01>3_IGHJ4*01 G100K/G104T G24T/S28R/G35V (H:KT TRV) & V3-4_IGLJ1*01 M94N (Fab, V domains shown)
# VH: B1 VH
# VL: B1 VL with S78T, M94N
# notes: as for B4
# B20: Fab VH5-51_IGHD5-18*01>3_IGHJ4*01 G100K/G104T G24T/S28R/G35V (H:KT TRV) & V3-4_IGLJ1*01 I98A (Fab, V domains shown)
# VH: B1 VH
# VL: B1 VL with S78T, I98A
# notes: Fab; expressed in E. coli with CH1 (Plasmid A, His6 and Flag tags) and lambda CL (Plasmid E); also called H:KT TRV & I98A
# B21: Fab VH5-51_IGHD5-18*01>3_IGHJ4*01 G100K/G104T G24T/S28R/G35V (H:KT TRV) & V3-4_IGLJ1*01 V91E (Fab, V domains shown)
# VH: B1 VH
# VL: B1 VL with S78T, V91E
# notes: as for B4
# Key:
# [1] = molecular target: T1, Recombinant Human DLL4 (human, UniProt Q9NR61 27-524); assay: ELISA, DLL4 coated on plate, Fab at 100 nM, absorbance at 450 nm minus blank
# T1 construct: also called delta-like protein 4; rHuman DLL4
# [2] = molecular target: T2, Recombinant Human DLL4 (human, UniProt Q9NR61 27-524); assay: ELISA, DLL4 coated on the plate, Fab at 100 nM, signal minus blank
# T2 construct: Bought recombinant human DLL4 (R&D Systems Cat#1506-D4/CF); also called delta-like protein 4; Delta-like 4
binder,measurement,setting,value
B1,ELISA Signal-blank (100 nM Fab),[1],0.093
B2,ELISA Signal-blank (100 nM Fab),[1],0.129
B3,ELISA Signal-blank (100 nM Fab),[1],0.277
B4,ELISA Signal-blank (100 nM Fab),[2],0.127
B5,ELISA Signal-blank (100 nM Fab),[1],0.398
B6,ELISA Signal-blank (100 nM Fab),[2],0.315
B7,ELISA Signal-blank (100 nM Fab),[2],0.08
B8,ELISA Signal-blank (100 nM Fab),[1],0.405
B9,ELISA Signal-blank (100 nM Fab),[2],0.529
B10,ELISA Signal-blank (100 nM Fab),[2],0.197
B11,ELISA Signal-blank (100 nM Fab),[1],0.478
B12,ELISA Signal-blank (100 nM Fab),[2],0.171
B13,ELISA Signal-blank (100 nM Fab),[2],0.442
B14,ELISA Signal-blank (100 nM Fab),[1],0.395
B15,ELISA Signal-blank (100 nM Fab),[2],0.388
B16,ELISA Signal-blank (100 nM Fab),[2],0.197
B17,ELISA Signal-blank (100 nM Fab),[2],0.203
B18,ELISA Signal-blank (100 nM Fab),[2],0.317
B19,ELISA Signal-blank (100 nM Fab),[2],0.205
B20,ELISA Signal-blank (100 nM Fab),[1],0.162
B21,ELISA Signal-blank (100 nM Fab),[2],0.152
